Test results: article PMC6297234, “aPKC controls endothelial growth by modulating c-Myc via FoxO1 DNA-binding ability”

Molecular target: GST-FoxO1 DBD S218D (Homo sapiens, UniProt Q12778 151-266, S218D)
Test: EMSA; 1 µM protein, 1 nM DNA, 1 ng/mL poly dI-dC; 20 mM Tris pH 8.0, 50 mM KCl, 5% glycerol, 2 mM DTT, 0.2 mM EDTA, 2 mM MgCl2, 0.1 mg/mL BSA, 1 ng/mL poly dI-dC; RT 30 min; 6% gel in 0.5X TBE at 4 °C
Conditions: protein: recombinant; tags: GST (pDEST15, N-terminal); blunt

Chain of GST-FoxO1 DBD S218D (Q12778 151-266 S218D): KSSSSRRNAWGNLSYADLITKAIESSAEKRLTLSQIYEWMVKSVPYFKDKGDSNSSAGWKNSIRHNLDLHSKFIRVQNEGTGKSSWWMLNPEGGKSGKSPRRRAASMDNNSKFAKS

B1: FoxO DBE duplex (dsDNA)
DNA 1: CAAAATGTAAACAAGA
DNA 2: TCTTGTTTACATTTTG
- binding result: no binding
